Molecular target: human angiotensin-converting-enzyme-2 (ACE2) receptor, recombinant (human, UniProt Q9BYF1 18-740)
Assay: SPR

Chain of human angiotensin-converting-enzyme-2 (ACE2) receptor, recombinant (Q9BYF1 18-740): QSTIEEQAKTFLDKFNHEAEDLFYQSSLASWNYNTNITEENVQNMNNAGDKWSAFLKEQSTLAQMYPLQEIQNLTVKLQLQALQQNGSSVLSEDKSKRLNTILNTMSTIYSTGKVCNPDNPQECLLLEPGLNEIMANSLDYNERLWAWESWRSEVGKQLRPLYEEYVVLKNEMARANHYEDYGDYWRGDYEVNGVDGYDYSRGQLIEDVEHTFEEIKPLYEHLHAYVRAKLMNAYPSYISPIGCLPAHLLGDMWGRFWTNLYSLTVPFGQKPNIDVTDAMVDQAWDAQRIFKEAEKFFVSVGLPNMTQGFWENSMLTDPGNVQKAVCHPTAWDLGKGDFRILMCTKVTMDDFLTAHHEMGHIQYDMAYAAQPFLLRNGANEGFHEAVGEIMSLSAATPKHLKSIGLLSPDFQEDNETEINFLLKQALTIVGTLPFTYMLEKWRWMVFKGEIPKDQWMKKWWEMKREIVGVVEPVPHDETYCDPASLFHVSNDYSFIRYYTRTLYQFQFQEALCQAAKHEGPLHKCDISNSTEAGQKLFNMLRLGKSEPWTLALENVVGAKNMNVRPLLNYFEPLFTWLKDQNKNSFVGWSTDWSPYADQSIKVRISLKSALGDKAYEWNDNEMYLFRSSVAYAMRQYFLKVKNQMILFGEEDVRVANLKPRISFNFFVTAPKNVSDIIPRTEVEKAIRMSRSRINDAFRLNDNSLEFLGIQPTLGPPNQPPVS

B1: pineapple-derived jacalin-related lectin AcmJRL (natural protein)
chain: SGLVKLGLWGGNEGTLQDIDGHPTRLTKIVIRSAHAIDALQFDYVEDGKTFAAGQWGGNGGKSDTIEFQPGEYLIAIKGTTGALGAVTNLVRSLTFISNMRTYGPFGLEHGTPFSVPVASGRIVAFYGRFGSLVDAFGIYLMPY
modifications: glycation (+162 Da, +324 Da) of lysines in part of the protein (ca. 10% bis-, 36% mono-modified, 54% unmodified); sites not determined
Work on B1 yielded a Kd of 36.4 µM.
